Measurements taken from the supplement of paper PMC12783771.
± gives the standard deviation of the averaged measurements.

B1: library; a variant is named by its letters at X, in order (parent)
chain: MNIQIGELAKRTACPVVTIRFYEQEGLLPPPGRSRGNFRLYGEEHVERLQFIRHCRSLDMPLSDVRTLLSYRKRPDQDCGEVXMLLDEHIRQVESRIGALLELKHHLVELREACSGARPAQSCGILQXLSXCVCXTRGTTAHXSD

Key:
[1] = variants of: B1; assay: sfGFP reporter fluorescence (15 h) (µM FITC); higher = higher leak; details: library round: Round 2; ligand: none
Summary of the method: (§1)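 Linear PbrR templates were made by PCR, normalized to 5 nM with an Echo, and expressed in BL21 Star (DE3) PANOx-SP extract with the pPbrR-sfGFP reporter plasmid and 30 μg/mL GamS. Echo-assembled 1 μL reactions held 1 µM lead chloride, 30 µM zinc acetate or no metal and were incubated 15 hr at 30 °C. Endpoint sfGFP fluorescence was read on a Synergy Neo2 and expressed as µM FITC using standard curves. Up to three biological replicates were run.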

[2] = variants of: B1; assay: sfGFP reporter fluorescence (15 h) (µM FITC); higher = stronger transcriptional activation; details: library round: Round 2
Summary of the method: as §1

Variant | sfGFP reporter fluorescence [1] | sfGFP reporter fluorescence ([2]; ligand: 1 µM Pb) | sfGFP reporter fluorescence ([2]; ligand: 30 µM Zn)
NMDAK L107C | 2.86 ± 0.17 | 3.46 ± 0.15 | 3.68 ± 0.19
NLDDP G124A L129A | 0.0419 ± 0.0017 | 0.0398 ± 0.0017 | 0.0426 ± 0.0023
TIDDP L107C E109H | 0.247 ± 0.016 | 1.19 ± 0.15 | 2.03 ± 0.17
NMDAP L101V K104V | 0.176 ± 0.024 | 0.55 ± 0.022 | 2.78 ± 0.34
NIDDP L107C G124A | 0.942 ± 0.1 | 2.53 ± 0.21 | 3.41 ± 0.84
NIDDP H105E L107C C134E | 2.32 ± 0.044 | 2.05 ± 0.18 | 2.82 ± 0.14
TIDDP D64K K104V | 0.156 ± 0.022 | 0.472 ± 0.075 | 2.62 ± 0.29
NMDDP L107C E109V | 2.96 ± 0.17 | 3.18 ± 0.55 | 3.51 ± 0.14
NMDDP R96G K104V | 0.0669 ± 0.0034 | 0.0841 ± 0.003 | 0.58 ± 0.055
NMDDP K104V L107S | 0.0726 ± 0.0093 | 0.159 ± 0.014 | 1.27 ± 0.068
NTDDP P61N D64K L107C | 2.26 ± 0.67 | 2.58 ± 0.67 | 3.04 ± 0.32
NIDDP K104T L107E | 0.047 ± 0.0022 | 0.0442 ± 0.00085 | 0.0493 ± 0.0021
NIDAK L107C G124A | 0.814 ± 0.086 | 2.25 ± 0.053 | 3.09 ± 0.3
NMDDP M60L D64T L107C | 3.16 ± 0.21 | 2.93 ± 0.29 | 4.14 ± 0.31
NMDDP I3M P61N K104V L107C | 0.501 ± 0.013 | 0.989 ± 0.041 | 2.79 ± 0.18
NIDDP I90L C134E | 0.0691 ± 0.0074 | 0.0913 ± 0.0088 | 1.77 ± 0.32
NIEDP L107C | 1.74 ± 0.23 | 2.69 ± 0.47 | 3.33 ± 0.68
NTCDP M60L | 0.222 ± 0.016 | 0.784 ± 0.021 | 2.43 ± 0.27
NSAAP | 0.0758 ± 0.0055 | 0.162 ± 0.0077 | 1.67 ± 0.15
NIDDP I90L K104V L107C | 0.0665 ± 0.003 | 0.0702 ± 0.0034 | 0.178 ± 0.014
NISDP L107C | 2.65 ± 0.43 | 3.61 ± 0.5 | 3.33 ± 0.18

Variant | sfGFP reporter fluorescence [1] | sfGFP reporter fluorescence ([2]; ligand: 1 µM Pb) | sfGFP reporter fluorescence ([2]; ligand: 30 µM Zn)
NMDDP M60L P61N K104V L107C | 0.759 ± 0.1 | 1.83 ± 0.19 | 3.54 ± 0.46
NIDDP M60L P61N K104V L107C | 0.315 ± 0.042 | 1.19 ± 0.096 | 2.16 ± 0.42
NMDDA M60L | 0.805 ± 0.062 | 1.88 ± 0.22 | 3.33 ± 0.49
NIDDP M60L D64K R111L | 1.98 ± 0.27 | 3.14 ± 0.19 | 3.92 ± 0.41
NMDAP L85I | 0.11 ± 0.012 | 0.278 ± 0.017 | 3.11 ± 0.44
NIDDP P61N C134E | 0.308 ± 0.021 | 0.544 ± 0.11 | 3.19 ± 0.055
NMDAP L107C | 2.23 ± 0.28 | 3.21 ± 0.21 | 3.29 ± 0.5
NIDDP D64K V108E | 0.181 ± 0.026 | 0.581 ± 0.051 | 3.32 ± 0.42
NTDAP L107C | 0.819 ± 0.064 | 1.7 ± 0.12 | 3.23 ± 0.041
NMDDP L85I K104V | 0.131 ± 0.013 | 0.417 ± 0.024 | 1.99 ± 1.7
TIDSP L107C | 0.384 ± 0.026 | 1.42 ± 0.32 | 3.28 ± 0.26
NIDAK M84A L107C | 1.54 ± 0.14 | 2.6 ± 0.14 | 4.03 ± 0.52
NIDSP M60L | 0.251 ± 0.048 | 0.739 ± 0.14 | 2.25 ± 0.49
TIDDP P61N D64K | 0.106 ± 0.013 | 0.617 ± 0.019 | 1.75 ± 0.14
TIDAP L107C G124A | 0.27 ± 0.037 | 1.38 ± 0.23 | 2.81 ± 0.45
NMDAA K104R L107C | 2.28 ± 0.3 | 3.13 ± 0.41 | 3.83 ± 0.4
NPDAP I90L | 0.0467 ± 0.0027 | 0.04301 ± 0.00034 | 0.0482 ± 0.0039
NIDDP P61N D64K K104V L107A | 0.0923 ± 0.0059 | 0.215 ± 0.018 | 1.34 ± 0.1
NTDAP M60L P61N D64K | 0.878 ± 0.074 | 2.33 ± 0.17 | 3.33 ± 0.36
NIEDP C134E | 0.194 ± 0.028 | 0.316 ± 0.0082 | 4.73 ± 3.2
NSEPP | 0.0629 ± 0.0028 | 0.145 ± 0.014 | 1.79 ± 0.34
